How the values were obtained:
[1] = target: human parkin, full-length (human) (UniProt O60260); experiment: ITC
parkin/pUb = parkin/pUb (UniProt O60260); experiment: ITC
Chain of parkin/pUb (O60260 whole entry, chain 1 of 2): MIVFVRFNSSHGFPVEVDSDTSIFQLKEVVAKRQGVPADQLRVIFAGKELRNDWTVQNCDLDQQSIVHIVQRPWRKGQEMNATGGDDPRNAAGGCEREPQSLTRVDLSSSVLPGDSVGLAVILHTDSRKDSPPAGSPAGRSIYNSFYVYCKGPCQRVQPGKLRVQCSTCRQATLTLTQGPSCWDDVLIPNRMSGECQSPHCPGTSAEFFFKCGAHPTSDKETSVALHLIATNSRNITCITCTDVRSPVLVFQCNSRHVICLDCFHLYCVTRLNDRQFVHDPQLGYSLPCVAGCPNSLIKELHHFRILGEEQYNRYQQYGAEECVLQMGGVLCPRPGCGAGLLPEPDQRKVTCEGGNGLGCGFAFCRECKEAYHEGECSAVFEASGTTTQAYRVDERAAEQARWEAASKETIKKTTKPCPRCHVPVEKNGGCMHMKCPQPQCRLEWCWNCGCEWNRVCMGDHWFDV
Chain of parkin/pUb (P0CG63 1-76, chain 2 of 2, further chain): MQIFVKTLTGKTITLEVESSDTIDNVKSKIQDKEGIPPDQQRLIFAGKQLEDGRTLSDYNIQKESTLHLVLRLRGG

Chain of human parkin, full-length (human) (O60260 whole entry): as the sequence (O60260 whole entry, chain 1 of 2) above
Chain of UbcH7~Ub (P68036 whole entry): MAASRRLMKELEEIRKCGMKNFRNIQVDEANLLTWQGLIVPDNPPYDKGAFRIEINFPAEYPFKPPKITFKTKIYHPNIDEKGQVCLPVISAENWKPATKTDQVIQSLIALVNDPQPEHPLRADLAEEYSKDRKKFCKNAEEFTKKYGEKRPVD
Chain of UbcH7~Ub (P0CG63 1-76): as the sequence (P0CG63 1-76, chain 2 of 2, further chain) above

How did the Kd [1] turn out when “CISD1-pUb (CISD1-Ub phosphorylated at S65 of Ub by PINK1) (from UniProt Q9NZ45 32-108; P0CG63 1-76)” was run?
The Kd was 0.428 µM.

“UbcH7~Ub (from UniProt P68036 1-154; P0CG63 1-76) (complex)” was tested. Which Kd (parkin/pUb) did it give?
Its Kd is 40 µM.

“mG2^T-pUb (mG2^T-Ub phosphorylated at S65 of Ub by PINK1) (from UniProt Q8IXI2 402-582; P0CG63 1-76)” was tested. Which Kd [1] did it give?
Its Kd is 0.894 µM.
